Read-outs that look alike come from different tables or passages of the source.
Legend:
FOXO1 FKH wt [1] = biological target: T1, FOXO1 FKH wt (UniProt Q12778 151-265); assay: EMSA
FOXO1 FKH wt [2] = biological target: T1, FOXO1 FKH wt; assay: EMSA; remark: listed apart in the source

B1: dsDBE2 (dsDNA)
DNA 1: TAAGCTAGTCTTGTTTACATTTTGCTAGCAAT
DNA 2: ATTGCTAGCAAAATGTAAACAAGACTAGCTTA
- Kd (FOXO1 FKH wt [1]): 90 nM

B2: dsIRE (dsDNA)
DNA 1: TAAGCTAGTGGTTTGTTTTGCTTGCTAGCAAT
DNA 2: ATTGCTAGCAAGCAAAACAAACCACTAGCTTA
- Kd (FOXO1 FKH wt [2]): 200 ± 70 nM
